From doi:10.1101/2020.05.24.113654 (bioRxiv, 2020) come the findings set out here.

The test deals with T1, Cre^Cat (interdomain linker and C-terminal catalytic domain of Cre recombinase, residues 127-343) (UniProt P06956 127-343).
T1 sequence (looked up): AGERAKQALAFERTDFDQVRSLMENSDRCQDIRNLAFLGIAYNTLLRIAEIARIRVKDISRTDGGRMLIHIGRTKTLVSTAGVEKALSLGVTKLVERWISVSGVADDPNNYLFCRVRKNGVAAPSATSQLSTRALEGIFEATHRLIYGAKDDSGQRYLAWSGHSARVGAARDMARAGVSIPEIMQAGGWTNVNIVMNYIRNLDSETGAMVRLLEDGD
The experiment in a line: intermolecular PRE-NMR.

Numbering of substitutions follows the chain as printed. Names may count otherwise.

B1: MTSL tagged-Cre^Cat C155A/C240A/D343C (domain or fragment, UniProt P06956 127-343, looked up)
chain: T1 sequence (looked up) with C29A, C114A, D217C
modifications: MTSL paramagnetic spin probe on C-terminal residue C343
As for B1, the binding result is recorded as “binds”.
